According to the supplement of paper PMC9112550, “Optimization of the antimicrobial peptide Bac7 by deep mutational scanning” (BMC Biology, 2022):

System: Escherichia coli TOP10
Experiment: shrunken log2 fold change of peptide-encoding DNA abundance (4.5 h post-induction vs induction); higher = less antimicrobial activity (less host growth inhibition)
Details: time post-induction: 4.5 h; library: site-saturation at positions 5, 18, 19, 20
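Further: peptides expressed intracellularly from a pBAD plasmid library in pooled LB shake-flask culture, induced with 0.3% L-arabinose, DNA abundance read by NGS, three biological replicates, DESeq2 with apeglm shrinkage.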

Sequence	shrunken log2 fold change
RRIRCRPPRLPRPRPRPDCLPRP	-0.494
RRIRMRPPRLPRPRPRPPNIPRP	-0.113
RRIRARPPRLPRPRPRPCYFPRP	-0.324
RRIRDRPPRLPRPRPRPSEKPRP	-0.0166
RRIRHRPPRLPRPRPRPRKYPRP	-0.556
RRIRCRPPRLPRPRPRPEHIPRP	-0.218
RRIRRRPPRLPRPRPRPHSMPRP	-0.118
RRIRWRPPRLPRPRPRPMYVPRP	-0.0461
RRIRARPPRLPRPRPRPVMTPRP	-0.00766
RRIRYRPPRLPRPRPRPYVPPRP	-0.77
RRIRHRPPRLPRPRPRPGGFPRP	-0.127
RRIRFRPPRLPRPRPRPYVGPRP	-0.108
RRIRWRPPRLPRPRPRPETKPRP	0.285
RRIRYRPPRLPRPRPRPYFTPRP	-0.981
RRIRLRPPRLPRPRPRPSIPPRP	-0.711
RRIRCRPPRLPRPRPRPHAPPRP	0.0482
RRIRLRPPRLPRPRPRPECVPRP	0.148
RRIRIRPPRLPRPRPRPTLFPRP	-0.131
RRIRVRPPRLPRPRPRPFYTPRP	0.508
RRIRGRPPRLPRPRPRPMYFPRP	-0.0129
RRIRWRPPRLPRPRPRPNQLPRP	-0.208
RRIRMRPPRLPRPRPRPQKTPRP	-0.0249
RRIRQRPPRLPRPRPRPNKEPRP	0.00917
RRIRNRPPRLPRPRPRPICDPRP	-0.119
RRIRTRPPRLPRPRPRPISLPRP	-0.0795

Sequence	shrunken log2 fold change
RRIRIRPPRLPRPRPRPHQEPRP	-0.01
RRIRGRPPRLPRPRPRPRLKPRP	0.777
RRIRLRPPRLPRPRPRPMFMPRP	-0.208
RRIRVRPPRLPRPRPRPYRDPRP	-0.278
RRIRYRPPRLPRPRPRPHAWPRP	-0.129
RRIRTRPPRLPRPRPRPNQHPRP	-0.354
RRIRNRPPRLPRPRPRPCPTPRP	-0.0624
RRIRLRPPRLPRPRPRPMMRPRP	0.196
RRIRPRPPRLPRPRPRPHMPPRP	-0.154
RRIRERPPRLPRPRPRPRPWPRP	0.298
RRIRQRPPRLPRPRPRPASNPRP	-0.00674
RRIRWRPPRLPRPRPRPKIYPRP	-0.0902
RRIRDRPPRLPRPRPRPGWWPRP	0.227
RRIRCRPPRLPRPRPRPLHGPRP	-0.089
RRIRVRPPRLPRPRPRPKEWPRP	0.146
RRIRQRPPRLPRPRPRPPMAPRP	0.0822
RRIRKRPPRLPRPRPRPNHPPRP	0.0844
RRIRVRPPRLPRPRPRPPGGPRP	0.598
RRIRNRPPRLPRPRPRPMRTPRP	0.312
RRIRFRPPRLPRPRPRPGNHPRP	-0.0246
RRIRARPPRLPRPRPRPIGAPRP	0.716
RRIRNRPPRLPRPRPRPICGPRP	-0.253
RRIRFRPPRLPRPRPRPESRPRP	0.146
RRIRDRPPRLPRPRPRPVMSPRP	-0.257
RRIRIRPPRLPRPRPRPAAAPRP	0.286

Sequence	shrunken log2 fold change
RRIRRRPPRLPRPRPRPDHRPRP	-0.00663
RRIRCRPPRLPRPRPRPDMTPRP	-0.00325
RRIRTRPPRLPRPRPRPIPGPRP	-0.36
RRIRMRPPRLPRPRPRPEVAPRP	3.75
RRIRTRPPRLPRPRPRPWEDPRP	0.0242
RRIRERPPRLPRPRPRPYMPPRP	-0.429
RRIRQRPPRLPRPRPRPTSEPRP	0.015
RRIRARPPRLPRPRPRPRWDPRP	0.768
RRIRARPPRLPRPRPRPPACPRP	0.817
RRIRIRPPRLPRPRPRPCPCPRP	-0.493
RRIRRRPPRLPRPRPRPWCRPRP	1.02
RRIRPRPPRLPRPRPRPGQFPRP	-0.0723
RRIRTRPPRLPRPRPRPKEAPRP	0.00564
RRIRLRPPRLPRPRPRPAGGPRP	0.169
RRIRERPPRLPRPRPRPMEYPRP	-0.00776
RRIRQRPPRLPRPRPRPGWKPRP	0.115
RRIRNRPPRLPRPRPRPSHLPRP	-0.438
RRIRNRPPRLPRPRPRPHQKPRP	0.0226
RRIRCRPPRLPRPRPRPDHPPRP	0.264
RRIRFRPPRLPRPRPRPCWFPRP	-0.509
RRIRMRPPRLPRPRPRPFKFPRP	-0.012
RRIRKRPPRLPRPRPRPERHPRP	0.105
RRIRKRPPRLPRPRPRPRICPRP	0.0539
RRIRQRPPRLPRPRPRPCDRPRP	-0.0449
RRIRTRPPRLPRPRPRPQHQPRP	-0.132

Sequence	shrunken log2 fold change
RRIRFRPPRLPRPRPRPVDDPRP	-0.601
RRIRGRPPRLPRPRPRPFTAPRP	0.272
RRIRYRPPRLPRPRPRPYQYPRP	-1.05
RRIRPRPPRLPRPRPRPPREPRP	0.678
RRIRERPPRLPRPRPRPNEHPRP	-0.445
RRIRLRPPRLPRPRPRPRLWPRP	0.399
RRIRRRPPRLPRPRPRPSHFPRP	-0.262
RRIRNRPPRLPRPRPRPATQPRP	-0.0108
RRIRNRPPRLPRPRPRPPRVPRP	0.379
RRIRGRPPRLPRPRPRPGITPRP	0.356
RRIRNRPPRLPRPRPRPFCPPRP	-0.278
RRIRTRPPRLPRPRPRPRLVPRP	0.0412
RRIRMRPPRLPRPRPRPGNTPRP	-0.246
RRIRMRPPRLPRPRPRPHQSPRP	-0.318
RRIRKRPPRLPRPRPRPDCMPRP	-0.0185
RRIRYRPPRLPRPRPRPTFYPRP	-0.803
RRIRMRPPRLPRPRPRPYINPRP	-0.574
RRIRLRPPRLPRPRPRPNVMPRP	-0.0669
RRIRMRPPRLPRPRPRPIHKPRP	0.0536
RRIRTRPPRLPRPRPRPPRIPRP	0.27
RRIRGRPPRLPRPRPRPCRVPRP	-0.0297
RRIRSRPPRLPRPRPRPRSDPRP	0.223
RRIRTRPPRLPRPRPRPKVNPRP	-0.168
RRIRRRPPRLPRPRPRPIPNPRP	0.349
RRIRARPPRLPRPRPRPWNRPRP	-0.0462

Sequence	shrunken log2 fold change
RRIRERPPRLPRPRPRPPQCPRP	-0.302
RRIRTRPPRLPRPRPRPCAAPRP	0.0451
RRIRCRPPRLPRPRPRPARSPRP	0.261
RRIRWRPPRLPRPRPRPSINPRP	-0.0638
RRIRARPPRLPRPRPRPDVVPRP	-0.101
RRIRYRPPRLPRPRPRPKPPPRP	0.524
RRIRIRPPRLPRPRPRPHSHPRP	-0.912
RRIRFRPPRLPRPRPRPFHKPRP	-1.02
RRIRIRPPRLPRPRPRPYNCPRP	-0.411
RRIRPRPPRLPRPRPRPRIPPRP	0.243
RRIRVRPPRLPRPRPRPPLMPRP	0.175
RRIRSRPPRLPRPRPRPGDDPRP	0.0869
RRIRSRPPRLPRPRPRPCQGPRP	-0.028
RRIRVRPPRLPRPRPRPAAYPRP	0.00526
RRIRWRPPRLPRPRPRPRSNPRP	-0.133
RRIRSRPPRLPRPRPRPNYWPRP	-0.143
RRIRYRPPRLPRPRPRPSIEPRP	-1.02
RRIRYRPPRLPRPRPRPYFQPRP	-1.6
RRIRARPPRLPRPRPRPWILPRP	0.223
RRIRYRPPRLPRPRPRPRQTPRP	-0.0574
RRIRPRPPRLPRPRPRPGHFPRP	0.0437
RRIRLRPPRLPRPRPRPCRVPRP	-0.141
RRIRTRPPRLPRPRPRPNVKPRP	-0.137
RRIRWRPPRLPRPRPRPTFKPRP	0.132
RRIRSRPPRLPRPRPRPLALPRP	-0.107

Sequence	shrunken log2 fold change
RRIRQRPPRLPRPRPRPWISPRP	-0.0848
RRIRCRPPRLPRPRPRPPTNPRP	0.248
RRIRTRPPRLPRPRPRPDIGPRP	-0.187
RRIRCRPPRLPRPRPRPDGHPRP	-0.00753
RRIRIRPPRLPRPRPRPVAFPRP	-0.306
RRIRARPPRLPRPRPRPARPPRP	0.827
RRIRGRPPRLPRPRPRPRDVPRP	0.654
RRIRCRPPRLPRPRPRPIVEPRP	-0.151
RRIRMRPPRLPRPRPRPAMKPRP	-0.00492
RRIRKRPPRLPRPRPRPYEKPRP	-0.0121
RRIRDRPPRLPRPRPRPCYVPRP	-0.116
RRIRDRPPRLPRPRPRPLRRPRP	0.463
RRIRERPPRLPRPRPRPFGVPRP	0.00331
RRIRVRPPRLPRPRPRPVKMPRP	0.0133
RRIRIRPPRLPRPRPRPLFIPRP	-0.525
RRIRARPPRLPRPRPRPPTMPRP	0.407
RRIRIRPPRLPRPRPRPGSAPRP	0.267
RRIRSRPPRLPRPRPRPSNNPRP	-0.66
RRIRSRPPRLPRPRPRPTYPPRP	-0.0945
RRIRTRPPRLPRPRPRPHRAPRP	0.0171
RRIRARPPRLPRPRPRPVQDPRP	-0.0965
RRIRLRPPRLPRPRPRPYIAPRP	-0.261
RRIRKRPPRLPRPRPRPPNMPRP	0.0839
RRIRMRPPRLPRPRPRPEDGPRP	2.85
RRIRIRPPRLPRPRPRPASRPRP	-0.106
